We go through 35 molecules from patent US20190092871A1 (VIB VZW, published 2019).

Changes are numbered by the printed parent chain.

One test deals with T1, mouse CD20 (mouse, UniProt P19437 1-291).
T1 construct: whole, on cells; also called mCD20; CHO-K1-mCD20
T1 sequence (looked up): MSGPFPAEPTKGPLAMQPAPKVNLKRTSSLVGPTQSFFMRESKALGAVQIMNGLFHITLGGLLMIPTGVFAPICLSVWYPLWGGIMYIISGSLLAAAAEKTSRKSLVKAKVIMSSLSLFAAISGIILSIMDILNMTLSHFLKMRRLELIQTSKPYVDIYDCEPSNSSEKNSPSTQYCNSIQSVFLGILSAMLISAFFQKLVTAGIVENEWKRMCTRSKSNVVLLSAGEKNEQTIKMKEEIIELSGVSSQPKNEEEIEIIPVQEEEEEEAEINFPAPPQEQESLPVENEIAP
The experiment in a line: cell ELISA, crude periplasmic extract, CHO-K1 expressing mouse CD20 against parental CHO-K1. The procedure: The library was subjected to 3 consecutive rounds of panning (in solution), performed on stably transfected CHO-K1 cells expressing mouse CD20. A parallel panning was performed on parental (non-transfected CHO-K1) cells to serve as negative control for the calculation of CD20-specific phage enrichment. The enrichment for antigen-specific phages was assessed after each round of panning by comparing the number of phagemid particles eluted from transfected cells with the number of phagemid particles eluted from parental cells. […] In total, 285 colonies (95 from each round of panning) were randomly selected and their crude periplasmic extracts (including soluble VHHs) were analyzed by cell ELISA for specific binding to transfected CHO-K1, as compared to parental cells. […] The 11 different VHHs belong to 2 different groups.
The library was subjected to 2 consecutive rounds of panning (in solution), performed on stably transfected CHO-K1 cells expressing mouse CD20 as described above. Here, the phage population was enriched (for antigen-specific phages) about 2- and 45-fold after 1st and 2nd rounds of panning, respectively. Here, 190 colonies, randomly picked from 2nd round, were tested by cell ELISA as above and 10 colonies scored positive. Based on sequence data, the 10 positive colonies represented 8 different VHHs (FIG. 4, bottom panel). The 8 different VHHs belong to 2 different groups. One of the groups identified here is the same group as one of those identified above.

Test [1] has as its target T2, human CD20 (human, UniProt P11836 1-297).
T2 construct: The forward primer starts at codon 2; also called hCD20; CHO-K1-hCD20
T2 sequence: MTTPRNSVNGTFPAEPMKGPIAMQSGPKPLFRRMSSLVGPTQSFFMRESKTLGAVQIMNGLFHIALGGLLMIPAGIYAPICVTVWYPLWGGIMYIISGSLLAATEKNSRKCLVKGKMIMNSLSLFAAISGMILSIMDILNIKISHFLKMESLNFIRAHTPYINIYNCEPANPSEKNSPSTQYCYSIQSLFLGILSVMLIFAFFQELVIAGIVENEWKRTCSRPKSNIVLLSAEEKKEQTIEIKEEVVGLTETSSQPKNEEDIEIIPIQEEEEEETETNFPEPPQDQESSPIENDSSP
The experiment in a line: FACS, 5 ug/ml VHH on CHO-K1 cells stably expressing human CD20, FITC anti-his detection. The procedure:
To determine the binding activities of the VHHs specific for human or mouse CD20, FACS analysis was carried out. Specifically, CHO-K1 cells and CHO-K1 cells stably expressing human or mouse CD20 were incubated with 5 μg/ml of the VHHs produced in accordance with the application. A monoclonal FITC labelled anti-his antibody (Genscript #A01620) was applied as secondary stain. FACS analysis was done on a FacsCalibur flow cytometer (Becton Dickinson).
(A flow cytometer gives signals particle by particle.)

Test [2] concerns the target T2, human CD20. In words: cell ELISA, crude periplasmic extract, CHO-K1 expressing human CD20 against parental CHO-K1.

B1: R2MUC36 (VHH)
VHH: QVQLQESGGGLVQAEGSLRLSCAASGRTRDANAMGWFRQAPGKERELVAAISWSGSRTYYADSVKGRFTISRDNVMHTVYLSMNSLKPEDTAVYYCAADRSIEVQIADYDYWGRGTQVTVSS
notes: Whole entry = VHH-AAA-HA-His6 (pMECS construct)
Regarding B1, the binding result with mouse CD20 was “binds”.

B2: 2MC39 (VHH)
VHH: QVQLQESGGGLAQAGNSLRISCVASGNTFDTRAMGWFRQAPGKEREFVAAISRSSFNTYYSDSVTGRFTISRDNAKNTVYLQMNSLKPEDTAVYYCAAGKYGMKWRDGADYWGQGTQVTVSS
notes: as for B1
For B2, the binding result in the test with mouse CD20 was “binds”.

B3: 2MC42 (VHH)
VHH: B2 VHH with L11S, A12V, A14T, N16G, S17T, R19T, I20L, K43E
notes: as for B1
On to B3, for which the binding result with mouse CD20 is given as “binds”.

B4: 2MC20 (VHH)
VHH: B2 VHH with A12V, A14T, N16G, I20L, V23A
notes: as for B1
In the case of B4, in the test with mouse CD20, the binding result is “binds”.

B5: 2MC51 (VHH)
VHH: B2 VHH with A97V
notes: as for B1
In the case of B5, the binding result with mouse CD20 was “binds”.

B6: 2MC82 (VHH)
VHH: B2 VHH with A14E, N16G, I20L, T78M
notes: as for B1
Regarding B6, in the test with mouse CD20, the binding result was “binds”.

B7: 2MC38 (VHH)
VHH: B2 VHH with A12V, N16E, A97V
notes: as for B1
Consider B7, for which the binding result with mouse CD20 is given as “binds”.

B8: 2HCD25 (VHH)
VHH: QVQLQESGGGLAQAGGSLRLSCAASGRTFSMGWFRQAPGKEREFVAAITYSGGSPYYASSVRGRFTISRDNAKNTVYLQMNSLKPEDTAVYYCAANPTYGSDWNAENWGQGTQVTVSS
notes: Whole entry = VHH-AAA-HA-His6 (pMECS construct); also called hCD20Nb
As to B8, the binding result in the test with human CD20 [1] is “binds”.

B9: 2HCD43 (VHH)
VHH: QVQLQESGGGLVQPGGSLRLSCTASGFTLDYYAIGWLRQAPGKEREGVSCISSSGGSTNYADSVKGRFTISRDNAKNTVYLLMNSLKPEDTAVYYCAAERTWVSNYYCSGDGDGYDYDYWGQGTQVTVSS
notes: as for B1
On to B9, for which the binding result with human CD20 [2] is “binds”.

B10: 2HCD16 (VHH)
VHH: QVQLQESGGGLVQAGGSLRLSCAASGRTFSRQSMGWFRQAPGKEREFVAVITWSGGSPYYADSVRGRFTISRDNAKNTVYLQMNSLKPEDTAVYYCAAPVSYGSQWLADYWGQGTQVTVSS
notes: as for B1
For the molecule B10, in the test with human CD20 [2], the binding result is reported as “binds”.

B11: R3CD105 (VHH)
VHH: B10 VHH with R31N, Q32Y, S33N, V50A, T52D, D62A, K76E, V100L, Q105T
notes: as for B1
For B11, in the test with human CD20 [2], the binding result is listed as “binds”.

B12: R3CD7 (VHH)
VHH: B10 VHH with T28S, R31S, Q32V, S33N, T52D, A61T, A75S, P99G, Q105R, A108G
notes: as for B1
Regarding B12, in the test with human CD20 [2], the binding result was “binds”.

B13: 2HCD81 (VHH)
VHH: B10 VHH with R31S, Q32Y, S33N, T52S, R65K, Q105S
notes: as for B1
Consider B13, for which, in the test with human CD20 [1], the binding result is “binds”.

B14: 2HCD35 (VHH)
VHH: B10 VHH with R31G, Y80H
notes: as for B1
Regarding B14, the binding result with human CD20 [2] is on record as “binds”.

B15: 2HCD42 (VHH)
VHH: B10 VHH with R31S, Q32Y, S33A
notes: as for B1
Turning to B15, the binding result with human CD20 [2] was “binds”.

B16: R3CD18 (VHH)
VHH: QVQLQESGGGLVQAGGSLRLSCAASGRTFSNSNMGWFRQAPGKEREFVAVIDWSGGSPYYTDSVRGRFTISRDNAKNTVYLQMNRLKPEDTAVYYCAGGVSFGSRWLSDYWGQGTQVTVSS
notes: as for B1
With B16, the binding result with human CD20 [2] is “binds”.

B17: 2HCD73 (VHH)
VHH: B10 VHH with K43E
notes: as for B1
On to B17, for which the binding result in the test with human CD20 [1] is recorded as “binds”.

B18: 2HCD22 (VHH)
VHH: B10 VHH with G16D, R65K
notes: as for B1
For B18, in the test with human CD20 [2], the binding result is listed as “binds”.

B19: 2HCD40 (VHH)
VHH: QVQLQESGGGLVQAGGSLRLSCAASGRTVGSYSMGWFRQAPGKEREFVAAVTWSGASPYYADSVKGRFTISRDNAKNTVYLQMNSLKPEDTAVYYCAANPTYSGGWHAEYWGQGTQVTVSS
notes: as for B1
Take B19: in the test with human CD20 [2], the binding result was “binds”.

B20: 2HCD68 (VHH)
VHH: B19 VHH with A14P, G26R, R27F, V29L, G30D, S31Y, S33A, M34I
notes: as for B1
As for B20, the binding result in the test with human CD20 [2] is on record as “binds”.

B21: 2HCD59 (VHH)
VHH: B19 VHH with L11S, V12E, A14P, W53R
notes: as for B1
As to B21, the binding result with human CD20 [2] is given as “binds”.

B22: 2HCD88 (VHH)
VHH: B19 VHH with G16D
notes: as for B1
As for B22, the binding result with human CD20 [2] is “binds”.

B23: 2HCD17 (VHH)
VHH: B19 VHH with T52I
notes: as for B1
Turning to B23, the binding result with human CD20 [1] is given as “binds”.

B24: R2MUC70 (VHH)
VHH: QVQLQESGGGLVQAGGSLRLSCAASGRDFATYSMAWFRQAPGKERESVATISWSGQRTRYADSVKGRFTISRDNAKNTVYLQMNSLKPEDTAVYYCAAPRTWGEFPPTQYDSWGQGTQVTVSS
notes: as for B1
B24: the binding result in the test with mouse CD20 is recorded as “binds”.

B25: R2MUC85 (VHH)
VHH: B24 VHH with A14P, A24T
notes: as for B1
B25: in the test with mouse CD20, the binding result was “binds”.

B26: R3MUC17 (VHH)
VHH: B24 VHH with Q13P
notes: as for B1
As for B26, the binding result in the test with mouse CD20 is given as “binds”.

B27: R3MUC66 (VHH)
VHH: B24 VHH with A35T, K87R
notes: as for B1
Take B27: the binding result with mouse CD20 is “binds”.

B28: R3MUC75 (VHH)
VHH: B24 VHH with L11S, A14T, A30S, A35G
notes: as for B1
On to B28, for which the binding result with mouse CD20 is reported as “binds”.

B29: 2MC52 (VHH)
VHH: B24 VHH with A23V, D28T, A30N, A35G, S47F, T50S, T58S, A98S
notes: as for B1
For the molecule B29, in the test with mouse CD20, the binding result is “binds”.

B30: R3MUC22 (VHH)
VHH: B24 VHH with D28T, A30S, A35G, S47F, T50I
notes: as for B1
As to B30, the binding result with mouse CD20 is given as “binds”.

B31: R3MUC56 (VHH)
VHH: B24 VHH with G16D
notes: as for B1
Take B31: the binding result with mouse CD20 is reported as “binds”.

B32: 2MC57 (VHH)
VHH: B24 VHH with A98M
notes: Whole entry = VHH-AAA-HA-His6 (pMECS construct); also called mCD20 Nb
In the case of B32, in the test with mouse CD20, the binding result is recorded as “binds”.

B33: R2MUC21 (VHH)
VHH: B24 VHH with G16D, A30S, A35G
notes: as for B1
Consider B33, for which, in the test with mouse CD20, the binding result is “binds”.

B34: R3MUC57 (VHH)
VHH: B24 VHH with K43E
notes: as for B1
Take B34: in the test with mouse CD20, the binding result is “binds”.

B35: R3MUC58 (VHH)
VHH: B24 VHH with A14P
notes: as for B1
Consider B35, for which the binding result with mouse CD20 was “binds”.
